Laboratory results taken from patent US20190000885A1 (GENERAL HOSPITAL, published 2019).

Biological target: T1, RNase/ANG inhibitor 1 (RNH1), endogenous protein in sorted mouse LKS cells and myeloid-restricted progenitors (mouse, UniProt Q91VI7 1-456)
T1 sequence (looked up): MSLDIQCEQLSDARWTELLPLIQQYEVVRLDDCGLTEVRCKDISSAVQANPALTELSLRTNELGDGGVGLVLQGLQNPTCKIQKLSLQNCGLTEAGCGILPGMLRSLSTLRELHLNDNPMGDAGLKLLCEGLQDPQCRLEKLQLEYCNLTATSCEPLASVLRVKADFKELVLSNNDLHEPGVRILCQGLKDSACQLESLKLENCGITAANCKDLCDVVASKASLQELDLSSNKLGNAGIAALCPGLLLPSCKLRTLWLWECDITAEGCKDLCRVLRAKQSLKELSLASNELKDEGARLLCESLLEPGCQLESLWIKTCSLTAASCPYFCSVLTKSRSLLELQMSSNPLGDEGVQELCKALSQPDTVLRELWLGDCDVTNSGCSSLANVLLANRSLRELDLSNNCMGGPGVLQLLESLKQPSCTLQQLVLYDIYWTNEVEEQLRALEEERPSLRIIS
Test: double immunofluorescence and acceptor-photobleaching FRET (AF488 donor, AF555 acceptor) on fixed sorted mouse cells
Experimental: For ANG/RNH1 localization, cells were stained with an in-house made mouse ANG-specific C527 monoclonal antibody (10 μg/ml) and R127 rabbit pAb of RNH1 (5 μg/ml), followed with AF488-conjugated rabbit anti-mouse (Thermo Scientific A11059, 1:600 dilution) and AF555-conjugated goat anti-rabbit (Thermo Scientific A21428, 1:600 dilution). Appropriate isotype controls were used at the same concentration. Images were acquired using Nikon A1R confocal microscopy.
FRET was performed using the acceptor photo-bleaching method, as previously described (Pizzo et al., 2013). Briefly, AF488 was used as the donor and AF555 as the acceptors. Signals were photobleached to less than 10% of the initial fluorescent measurement. ROI measurements from LKS cells and myeloid-restricted progenitors were taken from 10 individual cells. FRET efficiency was calculated using the formula […], where ID and IDA are fluorescence intensities before and after photobleaching, respectively. FRET was performed using Leica SP2 confocal microscopy.
The exact subcellular compartment where tiRNA is produced by ANG is currently unknown, but it has been shown that tiRNA production is correlated to SG localization of ANG in stressed cells (Pizzo et al., 2013). […]

- binding result: binds
B1: Angiogenin (ANG), endogenous mouse protein in sorted LKS cells and myeloid-restricted progenitors (enzyme, UniProt P21570 25-145, looked up)
chain: QDDSRYTKFLTQHHDAKPKGRDDRYCERMMKRRSLTSPCKDVNTFIHGNKSNIKAICGANGSPYRENLRMSKSPFQVTTCKHTGGSPRPPCQYRASAGFRHVVIACENGLPVHFDESFFSL
notes: Endogenous intracellular protein, not the recombinant ANG preparation; also called ribonuclease 5; RNase5
